Laboratory results as given in the supplement of paper PMC11136658.

System: peptide library, one residue held at a place counted from the Y acceptor
Experiment: relative phosphorylation of the sub-library (ratio to the mean residue at this position); higher = residue favoured
Method in brief: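 In 384-well plates, purified recombinant kinases were incubated for 90 min with 50 μM ATP containing γ-32P-ATP and biotinylated Tyr-centred peptide libraries, each mixture fixing one residue at a single position between −5 and +5. After capture on streptavidin membranes and rinsing, peptides were quantified by phosphorimaging with ImageQuant. Per-position intensities were scaled to the sum of the 18 (Ser/Thr-free library: 16) randomized residues, then multiplied by that number.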

Sequence of LTK, construct: aa450-end, human (P29376 450-864, looked up): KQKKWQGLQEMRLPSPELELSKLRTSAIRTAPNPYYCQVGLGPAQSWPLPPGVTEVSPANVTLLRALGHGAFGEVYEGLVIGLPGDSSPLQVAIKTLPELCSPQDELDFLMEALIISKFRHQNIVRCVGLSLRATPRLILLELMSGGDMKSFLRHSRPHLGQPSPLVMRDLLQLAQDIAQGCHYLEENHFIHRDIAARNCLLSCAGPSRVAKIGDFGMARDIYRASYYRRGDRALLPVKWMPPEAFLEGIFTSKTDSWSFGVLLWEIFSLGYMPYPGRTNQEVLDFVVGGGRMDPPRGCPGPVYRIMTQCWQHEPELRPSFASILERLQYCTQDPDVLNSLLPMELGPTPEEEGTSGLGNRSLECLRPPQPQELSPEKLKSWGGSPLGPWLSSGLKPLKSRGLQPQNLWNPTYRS
Sequence of MATK, construct: Full length, human (P42679 whole entry, looked up): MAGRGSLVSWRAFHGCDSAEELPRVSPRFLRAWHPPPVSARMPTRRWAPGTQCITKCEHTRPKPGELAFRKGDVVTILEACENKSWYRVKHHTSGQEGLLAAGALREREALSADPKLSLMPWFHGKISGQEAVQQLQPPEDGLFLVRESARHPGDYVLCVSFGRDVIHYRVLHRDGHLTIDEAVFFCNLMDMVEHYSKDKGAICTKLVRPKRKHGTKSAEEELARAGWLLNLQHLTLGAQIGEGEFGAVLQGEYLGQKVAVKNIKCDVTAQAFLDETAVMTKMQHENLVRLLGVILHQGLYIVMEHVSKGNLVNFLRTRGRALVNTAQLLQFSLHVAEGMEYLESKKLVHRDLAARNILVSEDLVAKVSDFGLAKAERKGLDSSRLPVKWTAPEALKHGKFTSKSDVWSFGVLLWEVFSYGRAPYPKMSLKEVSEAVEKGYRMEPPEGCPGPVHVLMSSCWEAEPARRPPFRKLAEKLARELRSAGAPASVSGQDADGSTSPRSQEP

LIMK2, construct: Full length, human (from UniProt P53671)
relative phosphorylation
Conditions | at +1 | at +2 | at +3 | at +4 | at +5 | at -1 | at -2 | at -3 | at -4 | at -5
A fixed | 0.976 | 0.966 | 1.08 | 1.3 | 0.842 | 1.01 | 0.854 | 1.04 | 1.16 | 1.03
D fixed | 0.585 | 0.603 | 0.651 | 0.577 | 0.528 | 0.594 | 0.554 | 0.548 | 0.717 | 0.683
E fixed | 0.556 | 0.664 | 0.635 | 0.693 | 0.554 | 0.615 | 0.56 | 0.529 | 0.643 | 0.723
F fixed | 0.891 | 1.1 | 0.986 | 0.945 | 0.84 | 0.819 | 0.936 | 0.877 | 0.858 | 0.92
G fixed | 0.979 | 1.06 | 1.1 | 1.48 | 1.07 | 1.08 | 1.08 | 1.24 | 1.27 | 1.05
H fixed | 1.33 | 1.11 | 1.25 | 1.39 | 1.13 | 1.05 | 1.18 | 1.14 | 0.993 | 1.13
I fixed | 0.695 | 0.788 | 0.744 | 0.691 | 0.53 | 0.782 | 0.82 | 0.632 | 0.691 | 0.818
K fixed | 1.65 | 1.47 | 1.31 | 1.43 | 1.73 | 1.54 | 1.51 | 1.6 | 1.46 | 1.46
L fixed | 0.739 | 0.931 | 0.795 | 0.891 | 0.749 | 0.896 | 0.86 | 0.865 | 0.815 | 0.849
M fixed | 0.822 | 1.01 | 1.1 | 0.899 | 0.75 | 0.922 | 0.857 | 0.669 | 0.79 | 0.744
N fixed | 0.958 | 0.851 | 0.879 | 0.724 | 1.07 | 1.1 | 1.07 | 1.09 | 0.928 | 0.852
P fixed | 1.23 | 1.31 | 1.33 | 1.4 | 1.13 | 1.28 | 1.26 | 1.33 | 1.19 | 1.15
Q fixed | 1.05 | 0.775 | 0.831 | 0.66 | 1.12 | 0.944 | 0.911 | 1.13 | 0.988 | 0.893
R fixed | 1.79 | 1.28 | 1.3 | 1.19 | 2 | 1.65 | 1.6 | 1.59 | 1.55 | 1.52
V fixed | 0.647 | 0.84 | 0.78 | 0.713 | 0.689 | 0.715 | 0.887 | 0.765 | 0.783 | 0.774
W fixed | 1.1 | 1.23 | 1.22 | 1.02 | 1.28 | 0.986 | 1.05 | 0.96 | 1.16 | 1.4
pThr fixed | 0.62 | 0.618 | 0.541 | 0.618 | 0.406 | 0.623 | 0.566 | 0.539 | 0.717 | 0.671
pTyr fixed | 0.617 | 0.693 | 0.604 | 0.497 | 0.519 | 0.868 | 0.658 | 0.599 | 0.627 | 0.759

LTK, construct: aa450-end, human (from UniProt P29376)
relative phosphorylation
Conditions | at +1 | at +2 | at +3 | at +4 | at +5 | at -1 | at -2 | at -3 | at -4 | at -5
A fixed | 2.49 | 0.74 | 0.654 | 0.78 | 0.895 | 0.879 | 1.07 | 0.891 | 1.26 | 1.05
D fixed | 0.526 | 0.697 | 0.327 | 0.862 | 0.716 | 1.28 | 0.86 | 1.09 | 0.982 | 1.02
E fixed | 1.34 | 0.934 | 0.278 | 0.952 | 0.642 | 0.877 | 0.963 | 1.49 | 1.21 | 0.905
F fixed | 0.908 | 1.31 | 2.08 | 1.11 | 1.37 | 0.992 | 0.711 | 1.03 | 1.05 | 1.01
G fixed | 0.74 | 0.404 | 0.61 | 0.982 | 1.12 | 0.345 | 1.17 | 0.983 | 1.19 | 1.19
H fixed | 0.848 | 0.806 | 0.808 | 1.11 | 0.914 | 1.12 | 1.08 | 0.947 | 0.883 | 0.961
I fixed | 1.23 | 1.1 | 2.95 | 0.875 | 1 | 2.47 | 1.01 | 0.705 | 0.762 | 0.839
K fixed | 0.402 | 0.708 | 0.361 | 1.1 | 0.949 | 0.377 | 1.09 | 1.09 | 1.05 | 1.23
L fixed | 1.07 | 1.41 | 1.38 | 0.85 | 1.04 | 2.06 | 0.934 | 0.916 | 1.01 | 0.999
M fixed | 1.82 | 1.19 | 1.82 | 1.07 | 0.968 | 0.982 | 0.882 | 0.886 | 0.878 | 0.844
N fixed | 0.476 | 0.908 | 0.445 | 0.822 | 0.855 | 1.27 | 0.986 | 1.18 | 0.858 | 1.17
P fixed | 0.18 | 0.683 | 0.671 | 1.02 | 1.65 | 0.835 | 1.04 | 0.968 | 1.2 | 1.14
Q fixed | 1.21 | 0.834 | 0.468 | 1.18 | 0.763 | 0.576 | 1.07 | 0.923 | 1.1 | 0.987
R fixed | 0.564 | 1.21 | 0.453 | 1.28 | 1.19 | 0.372 | 1.35 | 1.29 | 1.51 | 1.32
S fixed | 1.02 | 0.654 | 0.547 | 0.916 | 0.916 | 0.477 | 1.07 | 1 | 0.679 | 0.831
T fixed | 0.833 | 0.609 | 0.786 | 0.851 | 1.07 | 0.866 | 1.09 | 0.91 | 0.602 | 0.703
V fixed | 1.27 | 1.1 | 2.09 | 0.854 | 0.806 | 1.68 | 0.894 | 0.757 | 0.735 | 0.815
W fixed | 1.07 | 2.71 | 1.27 | 1.37 | 1.14 | 0.536 | 0.731 | 0.943 | 1.04 | 0.993
pThr fixed | 0.903 | 0.538 | 0.284 | 0.676 | 0.557 | 0.691 | 0.702 | 0.79 | 0.885 | 0.891
pTyr fixed | 1.46 | 2.37 | 0.533 | 1.29 | 0.546 | 4.33 | 1.16 | 1.12 | 1.11 | 1.06

MATK, construct: Full length, human (from UniProt P42679)
relative phosphorylation
Conditions | at +1 | at +2 | at +3 | at +4 | at +5 | at -1 | at -2 | at -3 | at -4 | at -5
A fixed | 1.54 | 0.899 | 0.728 | 0.85 | 0.892 | 0.545 | 0.986 | 0.875 | 1.17 | 0.971
D fixed | 0.52 | 0.698 | 0.362 | 0.806 | 0.935 | 1.04 | 0.725 | 1.43 | 1.29 | 1.34
E fixed | 1.01 | 0.877 | 0.364 | 1.15 | 1.09 | 2.07 | 1.36 | 2.47 | 1.78 | 1.26
F fixed | 0.735 | 1.12 | 1.38 | 0.839 | 1.18 | 0.512 | 0.538 | 0.854 | 0.872 | 0.935
G fixed | 0.643 | 0.46 | 0.667 | 0.962 | 0.845 | 0.407 | 1.23 | 0.95 | 1.39 | 1.18
H fixed | 1.61 | 0.658 | 1.15 | 1.49 | 1 | 1.71 | 1.09 | 1.08 | 0.975 | 1.01
I fixed | 0.964 | 0.972 | 1.95 | 0.803 | 0.862 | 2.32 | 0.822 | 0.599 | 0.724 | 0.922
K fixed | 0.833 | 0.932 | 1.12 | 1.19 | 0.979 | 0.703 | 0.911 | 0.76 | 0.982 | 0.986
L fixed | 0.776 | 1.24 | 1.51 | 0.876 | 0.881 | 0.905 | 0.737 | 0.683 | 0.756 | 0.763
M fixed | 1.22 | 1.32 | 0.915 | 0.998 | 0.983 | 0.954 | 0.677 | 0.736 | 0.749 | 0.845
N fixed | 0.804 | 1.3 | 0.491 | 1.14 | 1.09 | 0.988 | 1.03 | 1.23 | 0.879 | 1.1
P fixed | 0.521 | 0.763 | 1.08 | 1.15 | 0.952 | 0.536 | 1.15 | 1.07 | 1.1 | 1.06
Q fixed | 1.13 | 0.885 | 0.749 | 0.856 | 0.991 | 1.02 | 1 | 0.8 | 1.1 | 1.09
R fixed | 1.04 | 1.42 | 1.19 | 1.4 | 1.24 | 0.706 | 1 | 0.967 | 1.04 | 1.09
S fixed | 1.1 | 0.845 | 0.674 | 0.789 | 1.11 | 0.423 | 1.77 | 1.06 | 0.803 | 0.738
T fixed | 0.927 | 0.839 | 0.842 | 0.772 | 1.01 | 0.818 | 1.41 | 0.868 | 0.713 | 0.923
V fixed | 1.24 | 0.848 | 1.46 | 0.665 | 0.832 | 1.72 | 0.887 | 0.696 | 0.668 | 0.724
W fixed | 1.38 | 1.93 | 1.37 | 1.27 | 1.14 | 0.627 | 0.671 | 0.869 | 1 | 1.06
pThr fixed | 1.28 | 1.53 | 0.438 | 0.544 | 0.806 | 0.806 | 1.4 | 2.14 | 1.28 | 0.879
pTyr fixed | 3.3 | 3.6 | 0.787 | 1.2 | 0.998 | 9.49 | 2.64 | 4.79 | 3 | 1.8
